The values that follow come from patent publication US8615311B2, “Microelectorode array, methods for preparing the same and uses thereof” (Rutgers, The State University of New Jersey, priority 2010, dated 2013).

Common to all, as to assay type: cell-based, rat
The subject of one assay is Spinal cord explants. Nature of the assay: Axonal outgrowth from spinal cord explants with or without Ara-C in the medium. The settings on record: 1 μm Ara-C added to NB medium, after 13 days in culture, vs standard NB medium. On the procedure: Spinal cord explants are prepared using procedures known in the art. Briefly, pregnant Sprague Dawley rats were sacrificed by CO2 inhalation at gestational day 15, and pups were removed by Cesarean section. Spinal cord was removed posteriorly and transferred to a PDMS-lined petri dish in a drop of medium. The cord is then bisected longitudinally and finely minced transversely into sections 200-300 μm thick. Sections were suspended in NB medium plus 1% GlutaMAX supplement and 2% B27 supplement. Explants were then plated onto chemically or topographically patterned glass substrates or MEAS, all of which had been adsorbed overnight with laminin at 40 μg/ml in 10 μL of medium. Explants can be precisely positioned on the growth substrate during this step. In this experiment, explants were positions with the explant body over three contacts in the top row of the MEA, allowing space for axonal outgrowth over the other contacts. After 5 min, allowing for initial adhesion, enough medium was added to just cover the explant, and it was placed in an incubator at 5% CO2 and 37 deg C. Medium was replaced every 2 days.
Explants were fixed and stained on DIV 13 to identify axonal and dendritic outgrowth. […] Five well-attached explants were imaged in each condition, and their outgrowth was quantified using ImageJ software (NIH, Bethesda Md.). […]

The next assay has as its system Myoblasts. Nature of the assay: Myoblast fusion and differentiation into myotubes on surfaces adsorbed with different coatings. As to the method:
Myoblasts were isolated and cultured as previously described. Briefly, pregnant Sprague Dawley rats were sacrificed by CO2 inhalation at gestational day 21, and pups were removed by Cesarean section. Hind limb muscles were removed, and tissue was finely minced and digested (20 min at 37° C.) in PBS containing 1.5 U/ml collagenase (type D, Roche, Mannheim, Germany) and 2.5 U/ml dispase (type II, Roche, Mannheim, Germany). Single cells were separated from debris, pelleted by centrifugation, and resuspended in growth medium consisting of Ham's F-10 medium plus 20% fetal bovine serum, 1% Penicillin/Streptomycin, (all from Invitrogen, Carlsbad, Calif.) and 2.5 ng/ml human b-FGF (Promega Corporation, Madison, Wis.). Cells were then plated into 75 cm^2 flasks and incubated for 24 hrs. Adherent cells were resuspended and plated onto PDMS substrates in differentiation medium consisting of Neurobasal medium including 2% B-27 supplement, 1% Penicillin/Streptomycin and 1% GlutaMAX (all from Invitrogen, Carlsbad, Calif.) at a surface density of 200,000 cells/cm^2. Prior to seeding, surfaces were plasma treated (O2 plasma for 120 S at 50 Watts) and adsorbed overnight with 40 μg/ml laminin (Sigma Aldrich, St. Louis, Mo.). Medium changes were performed every other day.

A further assay has as its system Hippocampal neurons. Nature of the assay: Morphology and Sholl analysis (Bonfire program) of GFP-transfected hippocampal neurons treated with BDNF. To be noted: 25 ng/ml BDNF. As to the method: Hippocampal neurons were isolated from E18 rat embryos and cultured. Briefly, embryos were removed by Cesarian section at 18 days gestation and decapitated. The hippocampi were manually dissected under a microscope, and cells were triturated with a fire polished glass pipette tip, counted on a hemocytometer, and plated at a density of ˜1800 cells per mm^2 on 35 mm petri plates (Corning) coated with 1 mg/ml poly-D-lysine (Sigma-Aldrich). Cultures were maintained in Neurobasal medium containing penicillin, streptomycin, glutamine, and B27 supplement (NB; all purchased from Invitrogen).
At 5 days in vitro (DIV5), cells were transfected with cDNA encoding GFP using Effectene (Qiagen). The low efficiency of this transfection technique in this cell system allows the easy identification of the processes associated with single neurons. In the BDNF treatment groups, treatment occurred from DIV7-10, during which regular NB was replaced with NB containing 25 ng/ml BDNF. […] Cultures were fixed in 4% paraformaldehyde on DIV10 and immunostained with rat anti-GFP (a gift from Dr. Shu-Chan Hsu, Rutgers University) and MAP-2 (Sigma-Aldrich). Neurons were imaged in the GFP channel at 200× using an Olympus Optical IX50 microscope with a Cooke Sensicam CCD cooled camera, fluorescence imaging system, and ImagePro software (MediaCybernetics). Images were acquired in 8-bit TIFF format, measuring 512×640 pixels.
An embodiment Bonfire program is a series of custom scripts written in, for example, MATLAB (MathWorks), although it will be appreciated that any suitable programming language may be employed. Neuronal morphology was digitized in three stages based on the initial images. In the first stage, the semi-automated tools available through the NeuronJ plugin to ImageJ (NIH, Bethesda Md.) were used to define all neurite positions (FIG. 6(A-B)). The data for each neurite are exported using NeuronJ in the form of a series of nodes with defined positions in the X-Y plane, where nodes belonging to an individual neurite segment are linked by association. These tools allow the user to guide the tracing of each neuritic segment with course resolution by hand but reduce tracing time by using a curve-fitting algorithm to fine-tune the exact location of the nodes defining the neurite position.
In the second stage, portions of the embodiment Bonfire program were used to convert the strings of nodes provided by NeuronJ into SWC format for further manipulation. NeuronStudio is then used to define the pattern of connectivity between neurite segments (FIG. 6(C)). The transformation of the data into SWC format allows for the linkage of the simple strings of nodes defined previously into more complex branching structures. After linking is complete, another component of the embodiment Bonfire program checks the resulting structure for errors and non-linkages (FIG. 6(D)), based on the assumption that each neuritic segment may only give rise to two or less daughter segments. […] These two steps fully determine the structure of each cell's neuritic arbor in 2-dimensional space and encode it in a digital format.
Using these digitized neuritic arbors, a second component of the embodiment Bonfire program was then used to perform process identification and extract the following metrics: number of primary neurites, number of secondary neurites, number of branch points per cell, number of terminal neurite tips per cell, and Sholl analysis performed with a 3.0 μm ring interval (FIG. 6(E)). Sholl analysis is performed conceptually by drawing concentric circles around a cell body at incrementally increasing radii and counting the number of times each circle crosses a neuritic segment. The number of intersections is graphed as a function of radial distance from the cell body to give a quantitative representation of how neurite density varies spatially. […]

Where [1] appears, read: DIV7-10, vs untreated control, data not shown.

For `Nc1ccn([C@@H]2O[C@H](CO)[C@@H](O)[C@@H]2O)c(=O)n1` [Ara-C], the “axonal outgrowth length (maximum axonal extension from explant body)” value with Spinal cord explants was “did not appreciably reduce”.
For laminin, in the assay with Myoblasts (laminin adsorbed surfaces), the “myoblast fusion and maturation into striated myotubes” value is on record as “robust”. In addition, the myotube differentiation result in the assay with Myoblasts (surface adsorbed with the substance, data not shown) was “promoted myotube differentiation”.

B1: BDNF: a well-studied extracellular factor that regulates neurite morphology (protein, UniProt P23560 19-247, looked up)
Neurotrophic factor BDNF …: APMKEANIRGQGGLAYPGVRTHGTLESVNGPKAGSRGLTSLADTFEHVIEELLDEDQKVRPNEENNKDADLYTSRVMLSSQVPLEPPLLFLLEEYKNYLDAANMSMRVRRHSDPARRGELSVCDSISEWVTAADKKTAVDMSGGTVTVLEKVPVSKGQLKQYFYETKCNPMGYTKEGCRGIDKRHWNSQCRTTQSYVRALTMDSKKRIGWRFIRIDTSCVCTLTIKRGR
Regarding B1, in the assay on Hippocampal neurons (DIV7-10, vs untreated control), the “average number of branch points per cell” value is given as “no change between conditions”, the “distal neurites (total Sholl curve)” value is recorded as “no effect on distal neurites”, the “number of primary neurites (primary extensions) per cell” value is recorded as “statistically significant increase” and the “number of secondary neurites per cell” value is “does not reach statistical significance”. For the same molecule, the “number of terminal branches per cell” value with Hippocampal neurons (DIV7-10, vs untreated control) is “no change between conditions”. For the same molecule, in the assay with Hippocampal neurons (setting [1]), the average process length result is listed as “no significant change” and the total arbor length result was “no significant change”. Besides, the “proximal neurites within the first 35 μm of the soma (total Sholl curve)” value in the assay with Hippocampal neurons (DIV7-10, vs untreated control, global exposure in vitro) is listed as “increases proximal neurites”. Further, the “number of Sholl intersections with terminal neurites” value in the assay on Hippocampal neurons (DIV7-10, RIT labeling scheme Sholl analysis) was “increase”. For the same molecule, the “number of Sholl intersections with primary neurites” value with Hippocampal neurons (DIV7-10, segment identity-specific Sholl analysis) was “increase”.
